In patent publication US20150344570A1 (published 2015):

B1: GpH7-A5/GpH7-B3 variant K326_09D/GpL16-k0 (antibody, human IgG1, kappa)
heavy 1: not shown
heavy 2: not shown
light: DIVMTQSPLSLPVTPGEPASISCQASESLVHSNRNTYLHWYLQKPGQSPQLLIYKVSNRFSGVPDRFSGSGSGTDFTLKISRVEAEDVGVYYCSQNTHVPPTFGQGTKVEIERTVAAPSVFIFPPSDEQLKSGTASVVCLLNNFYPREAKVQWKVDNALQSGNSQESVTEQDSKDSTYSLSSTLTLSKADYEKHKVYACEVTHQGLSSPVTKSFNRGEC
notes: Alteration in one H chain only; also called He Ab K326_09D
B2: GpH7-A5/GpH7-B3 variant Y296_03V/GpL16-k0 (antibody, human IgG1, kappa)
heavy 1: not shown
heavy 2: not shown
light: B1 light
notes: Alteration in one H chain only; also called He Ab Y296_03V
B3: GpH7-A5/GpH7-B3 variant K334_19Q/GpL16-k0 (antibody, human IgG1, kappa)
heavy 1: not shown
heavy 2: not shown
light: B1 light
notes: Alteration in one H chain only; also called He Ab K334_19Q
B4: GpH7-A5/GpH7-B3 variant K326_03V/GpL16-k0 (antibody, human IgG1, kappa)
heavy 1: not shown
heavy 2: not shown
light: B1 light
notes: Alteration in one H chain only; also called He Ab K326_03V
B5: GpH7-A5/GpH7-B3 variant I336_15Y/GpL16-k0 (antibody, human IgG1, kappa)
heavy 1: not shown
heavy 2: not shown
light: B1 light
notes: Alteration in one H chain only; also called He Ab I336_15Y
B6: GpH7-A5/GpH7-B3 variant T335_02A/GpL16-k0 (antibody, human IgG1, kappa)
heavy 1: not shown
heavy 2: not shown
light: B1 light
notes: Alteration in one H chain only; also called He Ab T335_02A
B7: GpH7-A5/GpH7-B3 variant Y296_08L/GpL16-k0 (antibody, human IgG1, kappa)
heavy 1: not shown
heavy 2: not shown
light: B1 light
notes: Alteration in one H chain only; also called He Ab Y296_08L
B8: GpH7-A5/GpH7-B3 variant K326_07I/GpL16-k0 (antibody, human IgG1, kappa)
heavy 1: not shown
heavy 2: not shown
light: B1 light
notes: Alteration in one H chain only; also called He Ab K326_07I
B9: GpH7-A5/GpH7-B3 variant K334_03V/GpL16-k0 (antibody, human IgG1, kappa)
heavy 1: not shown
heavy 2: not shown
light: B1 light
notes: Alteration in one H chain only; also called He Ab K334_03V
B10: GpH7-A5/GpH7-B3 variant S239_10E/GpL16-k0 (antibody, human IgG1, kappa)
heavy 1: not shown
heavy 2: not shown
light: B1 light
notes: Alteration in one H chain only; also called He Ab S239_10E
B11: GpH7-A5/GpH7-B3 variant Q295_10E/GpL16-k0 (antibody, human IgG1, kappa)
heavy 1: not shown
heavy 2: not shown
light: B1 light
notes: Alteration in one H chain only; also called He Ab Q295_10E
B12: GpH7-A5/GpH7-B3 variant S324_10E/GpL16-k0 (antibody, human IgG1, kappa)
heavy 1: not shown
heavy 2: not shown
light: B1 light
notes: Alteration in one H chain only; also called He Ab S324_10E
B13: GpH7-A5/GpH7-B3 variant S337_18N/GpL16-k0 (antibody, human IgG1, kappa)
heavy 1: not shown
heavy 2: not shown
light: B1 light
notes: Alteration in one H chain only; also called He Ab S337_18N
B14: GpH7-A5/GpH7-B3 variant S267_14T/GpL16-k0 (antibody, human IgG1, kappa)
heavy 1: not shown
heavy 2: not shown
light: B1 light
notes: Alteration in one H chain only; also called He Ab S267_14T
B15: GpH7-A5/GpH7-B3 variant P271_18N/GpL16-k0 (antibody, human IgG1, kappa)
heavy 1: not shown
heavy 2: not shown
light: B1 light
notes: Alteration in one H chain only; also called He Ab P271_18N
B16: GpH7-A5/GpH7-B3 variant K334_18N/GpL16-k0 (antibody, human IgG1, kappa)
heavy 1: not shown
heavy 2: not shown
light: B1 light
notes: Alteration in one H chain only; also called He Ab K334_18N
B17: GpH7-A5/GpH7-B3 variant S267_18N/GpL16-k0 (antibody, human IgG1, kappa)
heavy 1: not shown
heavy 2: not shown
light: B1 light
notes: Alteration in one H chain only; also called He Ab S267_18N
B18: GpH7-A5/GpH7-B3 variant K334_04F/GpL16-k0 (antibody, human IgG1, kappa)
heavy 1: not shown
heavy 2: not shown
light: B1 light
notes: Alteration in one H chain only; also called He Ab K334_04F
B19: GpH7-A5/GpH7-B3 variant K334_05P/GpL16-k0 (antibody, human IgG1, kappa)
heavy 1: not shown
heavy 2: not shown
light: B1 light
notes: Alteration in one H chain only; also called He Ab K334_05P
B20: GpH7-A5/GpH7-B3 variant S337_11K/GpL16-k0 (antibody, human IgG1, kappa)
heavy 1: not shown
heavy 2: not shown
light: B1 light
notes: Alteration in one H chain only; also called He Ab S337_11K
B21: GpH7-A5/GpH7-B3 variant K334_13S/GpL16-k0 (antibody, human IgG1, kappa)
heavy 1: not shown
heavy 2: not shown
light: B1 light
notes: Alteration in one H chain only; also called He Ab K334_13S
B22: GpH7-A5/GpH7-B3 variant K326_20W/GpL16-k0 (antibody, human IgG1, kappa)
heavy 1: not shown
heavy 2: not shown
light: B1 light
notes: Alteration in one H chain only; also called He Ab K326_20W
B23: GpH7-A5/GpH7-B3 variant I336_16H/GpL16-k0 (antibody, human IgG1, kappa)
heavy 1: not shown
heavy 2: not shown
light: B1 light
notes: Alteration in one H chain only; also called He Ab I336_16H
B24: GpH7-B3 variant T335_13S/GpL16-k0 (antibody, human IgG1, kappa)
heavy: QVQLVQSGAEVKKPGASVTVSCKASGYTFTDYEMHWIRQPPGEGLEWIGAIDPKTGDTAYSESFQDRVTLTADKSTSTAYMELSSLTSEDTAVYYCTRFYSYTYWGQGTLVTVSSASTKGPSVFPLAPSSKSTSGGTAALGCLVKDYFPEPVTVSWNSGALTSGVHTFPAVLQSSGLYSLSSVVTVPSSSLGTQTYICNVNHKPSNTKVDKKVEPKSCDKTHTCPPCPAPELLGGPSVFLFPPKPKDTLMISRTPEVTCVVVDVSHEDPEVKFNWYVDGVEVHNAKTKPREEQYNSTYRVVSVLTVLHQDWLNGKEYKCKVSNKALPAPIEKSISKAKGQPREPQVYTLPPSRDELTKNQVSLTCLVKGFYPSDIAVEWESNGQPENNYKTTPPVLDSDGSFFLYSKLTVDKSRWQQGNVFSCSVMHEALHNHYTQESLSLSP
light: B1 light
notes: Alteration in both H chains; also called Ho Ab T335_13S
B25: GpH7-B3 variant Y296_02A/GpL16-k0 (antibody, human IgG1, kappa)
heavy: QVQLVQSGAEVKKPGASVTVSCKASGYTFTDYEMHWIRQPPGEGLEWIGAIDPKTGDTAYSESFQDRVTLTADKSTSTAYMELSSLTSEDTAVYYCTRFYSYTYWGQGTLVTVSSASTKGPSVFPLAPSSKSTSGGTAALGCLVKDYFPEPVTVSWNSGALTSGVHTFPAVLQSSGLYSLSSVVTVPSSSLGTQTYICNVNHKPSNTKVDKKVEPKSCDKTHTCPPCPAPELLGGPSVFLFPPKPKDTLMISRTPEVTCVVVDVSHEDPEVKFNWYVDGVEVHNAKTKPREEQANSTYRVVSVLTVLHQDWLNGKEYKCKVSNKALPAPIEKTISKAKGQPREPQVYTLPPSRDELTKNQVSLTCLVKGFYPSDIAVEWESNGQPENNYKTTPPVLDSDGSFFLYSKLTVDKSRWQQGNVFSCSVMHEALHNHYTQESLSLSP
light: B1 light
notes: Alteration in both H chains; also called Ho Ab Y296_02A
B26: GpH7-B3 variant Y296_07I/GpL16-k0 (antibody, human IgG1, kappa)
heavy: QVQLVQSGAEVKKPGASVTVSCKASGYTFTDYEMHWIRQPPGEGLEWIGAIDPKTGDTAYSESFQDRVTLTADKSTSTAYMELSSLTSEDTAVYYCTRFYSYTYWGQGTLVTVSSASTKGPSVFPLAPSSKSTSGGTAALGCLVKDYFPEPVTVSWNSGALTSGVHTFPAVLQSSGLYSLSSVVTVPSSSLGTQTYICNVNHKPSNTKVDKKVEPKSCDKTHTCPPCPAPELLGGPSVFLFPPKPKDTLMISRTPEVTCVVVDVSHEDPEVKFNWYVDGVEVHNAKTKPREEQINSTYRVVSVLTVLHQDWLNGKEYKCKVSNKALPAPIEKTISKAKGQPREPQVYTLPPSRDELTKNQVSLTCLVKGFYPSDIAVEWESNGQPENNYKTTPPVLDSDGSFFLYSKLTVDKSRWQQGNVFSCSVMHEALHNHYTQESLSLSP
light: B1 light
notes: Alteration in both H chains; also called Ho Ab Y296_07I
B27: GpH7-B3 variant Y300_16H/GpL16-k0 (antibody, human IgG1, kappa)
heavy: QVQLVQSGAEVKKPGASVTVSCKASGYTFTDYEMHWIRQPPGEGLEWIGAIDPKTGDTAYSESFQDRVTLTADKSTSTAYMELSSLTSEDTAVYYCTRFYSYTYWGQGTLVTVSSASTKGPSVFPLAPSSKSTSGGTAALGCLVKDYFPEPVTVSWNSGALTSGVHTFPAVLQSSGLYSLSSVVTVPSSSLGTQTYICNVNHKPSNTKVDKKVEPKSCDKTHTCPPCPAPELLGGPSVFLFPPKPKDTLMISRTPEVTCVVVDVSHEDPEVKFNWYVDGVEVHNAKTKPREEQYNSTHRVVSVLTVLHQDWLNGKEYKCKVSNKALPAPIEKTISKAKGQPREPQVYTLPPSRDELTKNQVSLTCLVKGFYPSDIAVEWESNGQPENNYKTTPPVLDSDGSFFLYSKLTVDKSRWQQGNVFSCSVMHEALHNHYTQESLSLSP
light: B1 light
notes: Alteration in both H chains; also called Ho Ab Y300_16H
B28: GpH7-B3 variant Y300_07I/GpL16-k0 (antibody, human IgG1, kappa)
heavy: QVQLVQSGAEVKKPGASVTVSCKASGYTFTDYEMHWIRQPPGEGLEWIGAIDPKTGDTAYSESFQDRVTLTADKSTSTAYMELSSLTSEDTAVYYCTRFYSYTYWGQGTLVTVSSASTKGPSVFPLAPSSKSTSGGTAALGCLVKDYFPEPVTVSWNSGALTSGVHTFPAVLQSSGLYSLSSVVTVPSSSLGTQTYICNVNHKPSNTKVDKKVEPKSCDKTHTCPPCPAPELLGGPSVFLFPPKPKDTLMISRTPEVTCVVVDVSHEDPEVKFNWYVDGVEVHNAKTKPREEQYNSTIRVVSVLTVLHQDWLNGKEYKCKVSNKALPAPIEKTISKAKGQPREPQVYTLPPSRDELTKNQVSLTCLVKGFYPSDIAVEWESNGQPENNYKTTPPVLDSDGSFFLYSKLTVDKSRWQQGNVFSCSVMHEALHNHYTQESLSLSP
light: B1 light
notes: Alteration in both H chains; also called Ho Ab Y300_07I
B29: GpH7-B3 variant Y296_03V/GpL16-k0 (antibody, human IgG1, kappa)
heavy: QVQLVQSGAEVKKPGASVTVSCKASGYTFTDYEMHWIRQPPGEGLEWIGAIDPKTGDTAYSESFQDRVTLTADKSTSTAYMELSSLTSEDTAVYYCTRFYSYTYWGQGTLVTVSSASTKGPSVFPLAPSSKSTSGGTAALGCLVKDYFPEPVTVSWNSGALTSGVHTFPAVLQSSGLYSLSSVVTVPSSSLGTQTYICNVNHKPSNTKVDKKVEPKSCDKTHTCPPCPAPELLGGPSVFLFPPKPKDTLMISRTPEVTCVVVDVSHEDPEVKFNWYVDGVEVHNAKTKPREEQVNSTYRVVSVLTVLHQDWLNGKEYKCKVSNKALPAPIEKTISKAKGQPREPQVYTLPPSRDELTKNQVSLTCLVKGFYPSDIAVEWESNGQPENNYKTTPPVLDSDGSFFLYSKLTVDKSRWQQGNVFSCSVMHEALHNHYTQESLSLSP
light: B1 light
notes: Alteration in both H chains; also called Ho Ab Y296_03V
B30: GpH7-B3 variant Y296_08L/GpL16-k0 (antibody, human IgG1, kappa)
heavy: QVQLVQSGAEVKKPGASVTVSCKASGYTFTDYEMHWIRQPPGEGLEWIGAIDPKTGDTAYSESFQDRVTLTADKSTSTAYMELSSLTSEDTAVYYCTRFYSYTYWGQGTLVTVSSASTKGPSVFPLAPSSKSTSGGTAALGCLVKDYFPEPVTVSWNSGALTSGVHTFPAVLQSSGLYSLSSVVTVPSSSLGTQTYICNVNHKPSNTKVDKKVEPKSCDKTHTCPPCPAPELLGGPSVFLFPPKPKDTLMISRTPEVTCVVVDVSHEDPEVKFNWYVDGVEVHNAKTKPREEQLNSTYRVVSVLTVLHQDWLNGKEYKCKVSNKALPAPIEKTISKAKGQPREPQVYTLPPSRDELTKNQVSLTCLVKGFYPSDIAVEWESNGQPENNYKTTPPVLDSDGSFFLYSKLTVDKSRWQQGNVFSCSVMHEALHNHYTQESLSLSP
light: B1 light
notes: Alteration in both H chains; also called Ho Ab Y296_08L

target: T1, FcγRIa (human, UniProt P12314 16-292); experiment: SPR (Biacore), relative binding; control HeCon Ab GpH7-A5/GpH7-B3/GpL16-k0
T1 construct: extracellular domain; also called FcgRI; FcgRIa; not shown: His tag attached to the C terminus
T1 sequence (P12314 16-292): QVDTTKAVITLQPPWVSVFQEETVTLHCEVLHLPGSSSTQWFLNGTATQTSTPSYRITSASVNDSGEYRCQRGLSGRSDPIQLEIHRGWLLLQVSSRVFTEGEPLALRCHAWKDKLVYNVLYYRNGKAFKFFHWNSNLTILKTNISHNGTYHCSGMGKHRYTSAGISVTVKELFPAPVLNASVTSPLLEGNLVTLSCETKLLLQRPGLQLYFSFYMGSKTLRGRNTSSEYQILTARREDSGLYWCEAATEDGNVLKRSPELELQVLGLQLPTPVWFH

| He/Con_1a | Binder |
| --- | --- |
| 103 % of control (=100) | B1 |
| 104 % of control (=100) | B2 |
| 106 % of control (=100) | B3 |
| 102 % of control (=100) | B4 |
| 103 % of control (=100) | B5 |
| 103 % of control (=100) | B6 |
| 104 % of control (=100) | B7 |
| 101 % of control (=100) | B8 |
| 105 % of control (=100) | B9 |
| 105 % of control (=100) | B10 |
| 103 % of control (=100) | B11 |
| 105 % of control (=100) | B12 |
| 105 % of control (=100) | B13 |
| 102 % of control (=100) | B14 |
| 103 % of control (=100) | B15 |
| 105 % of control (=100) | B16 |
| 102 % of control (=100) | B17 |
| 105 % of control (=100) | B18 |
| 104 % of control (=100) | B19 |
| 104 % of control (=100) | B20 |
| 105 % of control (=100) | B21 |
| 103 % of control (=100) | B22 |
| 101 % of control (=100) | B23 |

target: T1, FcγRIa; experiment: SPR (Biacore), relative binding; control HoCon Ab GpH7-B3/GpL16-k0

| Ho/Con_1a | Binder |
| --- | --- |
| 105 % of control (=100) | B24 |
| 103 % of control (=100) | B25 |
| 106 % of control (=100) | B26 |
| 111 % of control (=100) | B27 |
| 109 % of control (=100) | B28 |
| 104 % of control (=100) | B29 |
| 105 % of control (=100) | B30 |
